This data set concerns the target T1, Drosha-Quad dsRBD (human, UniProt Q9NRR4 1259-1337, K1262I;I1317K;Q1318K;E1321K).
T1 sequence: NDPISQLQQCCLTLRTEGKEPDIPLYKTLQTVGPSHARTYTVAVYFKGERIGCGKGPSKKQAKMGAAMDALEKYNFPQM
Kind of data set: EMSA; 50 mM sodium cacodylate pH 6.0, 50 mM KCl, 5% glycerol, 1 mM DTT, 0.1 mg/mL BSA, 0.1 mg/mL herring sperm DNA, 30 min at room temperature; 10% native gel at 4 C; Hill fit. The conditions noted are these: protein: recombinant, tags: pET-47b(+) vector. For orientation: Mobility shift assays separate free from complexed probe on a gel.

The mark [1] stands for this setting: label: 5'-32P top strand, blunt.

B1: ds22 (dsRNA)
RNA 1: GUCAGCAGUGCCUUAGCAGCAC
RNA 2: GUGCUGCUAAGGCACUGCUGAC
Take B1: the dissociation constant (Kd) under setting [1] came out at 13.4 ± 0.4 µM.

B2: ds33 (dsRNA)
RNA 1: GGUCAGCAGUGCCUUAGCAGCACGUAAAUAUGG
RNA 2: CCAUAUUUACGUGCUGCUAAGGCACUGCUGACC
With B2, the Kd under setting [1] is 7.8 ± 0.2 µM.

B3: pri-mir-16-1 (structured_RNA)
RNA: GGGUGAUAGCAAUGUCAGCAGUGCCUUAGCAGCACGUAAAUAUUGGCGUUAAGAUUCUAAAAUUAUCUCCAGUAUUAACUGUGCUGCUGAAGUAAGGUUGACCAUACUCUAC
Regarding B3, for the setting “label: 32P (5' end implied), hairpin, stem region contains 39 bp”, the dissociation constant (Kd) is 2.8 ± 0.1 µM.

B4: ds44 (dsRNA)
RNA 1: GGUCAGCAGUGCCUUAGCAGCACGUAAAUAUUGGCGUUAAGACC
RNA 2: GGUCUUAACGCCAAUAUUUACGUGCUGCUAAGGCACUGCUGACC
In the case of B4, the equilibrium dissociation constant (Kd) under setting [1] is 6.5 ± 0.6 µM.

Usually Kd stands for the concentration at which binding is half-saturated.

Source of the values: paper PMC5549741, “Engineering double-stranded RNA binding activity into the Drosha double-stranded RNA binding domain results in a loss of microRNA processing function”.
